Target: T1, Gi1 heterotrimer (human Gαi1, Gβ1, Gγ2) (human, UniProt P63096 1-354; P62873 1-340; P59768 1-71)
T1 construct: Gαi1, human; Gβ1, human; Gγ2, cloned together with human Gβ1 in pFastBac Dual; Treated with λ protein phosphatase; Purified with 10 µM GDP; made nucleotide-free in the assay with apyrase where said; Residues of the 3C site may be left on Gβ1 after cleavage; also called G protein; source: Hi5 cells, baculovirus co-infection, purified (Ni-NTA, MonoQ; also SEC for DEER samples); not shown: His6, …
Experiment: single-molecule FRET within the labelled receptor (TIRFM); 20 nM µOR–Cy3/Cy5 with 100 µM ligand incubated with 20 µM Gi1, then apyrase (nucleotide-free); complex immobilised via Flag tag, biotinylated M1 Fab and streptavidin; 25 °C, LMNG/CHS micelles, 100 ms frames
Conditions: both partners purified

B1: µOR∆7(R182C/R273C) labelled with iodoacetamide-conjugated Cy3 and Cy5 (receptor)
chain: GPGNISDSSDPLAPASSSPAPGSWLNLSHVDGNQSDPSGPNRTGLGGSHSLSPQTGSPSMVTAITIMALYSIVCVVGLFGNFLVMYVIVRYTKMKTATNIYIFNLALADALATSTLPFQSVNYLMGTWPFGNILCKIVISIDYYNMFTSIFTLCTMSVDRYIAVTHPVKALDFRTPCNAKIVNVCNWILSSAIGLPVMFMATTKYRQGSIDCTLTFSHPTWYWENLLKICVFIFAFIMPVLIITVCYGLMILRLKSVRMLSGSKEKDCNLRRITRMVLVVVAVFIVCWTPIHIYVIIKALITIPETTFQTVSWHFCIALGYTNSCLNPVLYAFLDENFKRAFREFLIPTSSTIEQQNSARIRQNTREHPSTANTVDRTNHQLENLEAETAPLP
modifications: iodoacetamide-conjugated Cy3 and Cy5 on the introduced cysteines 182 and 273
notes: µ-opioid receptor, Mus musculus, residues 6-398, minimal-cysteine construct µOR∆7 with two introduced labelling cysteines; Tethered to the cover slip via its Flag tag, biotinylated M1 Fab and streptavidin; also called µOR–Cy3/Cy5; source: Sf9 insect cells, baculovirus, purified (Ni-NTA, anti-Flag M1 resin, SEC) in LMNG/CHS micelles; not shown: Flag, N-terminal, kept
  binding result: binds
